Reference: patent US9533055 (ARMAGEN TECHNOLOGIES, dated 2017)

Target: T1, HIR extracellular domain (ECD) (human, UniProt P06213 28-956, limits assumed)
T1 construct: extracellular domain; also called HIR ECD; human insulin receptor ECD
Assay: ELISA, plated HIR ECD, biotinylated goat anti-human IgG detection
Description: The affinity of the fusion protein for the HIR extracellular domain (ECD) was determined with an ELISA using the lectin affinity purified HIR ECD. CHO cells permanently transfected with the HIR ECD were grown in serum free media (SFM), and the HIR ECD was purified with a wheat germ agglutinin affinity column. The HIR ECD (0.2 μg/well) was plated on Immulon 2 high binding 96-well plates, and the binding of the chimeric HIRMAb, the HIRMAb-TNFR fusion protein, or human IgG1 to the HIR ECD was detected with a biotinylated goat anti-human IgG (H+L) antibody (0.3 μg/well), and the avidin biotinylated peroxidase detection system.

EC50: 0.44 nM
B1: chimeric HIRMAb (antibody, V domains shown)
VH: QVQLQQSGPELVKPGALVKISCKASGYTFTNYDIHWVKQRPGQGLEWIGWIYPGDGSTKYNEKFKGKATLTADKSSSTAYMHLSSLTSEKSAVYFCAREWAYWGQGTLVTVSA
VL: DIQMTQSPSSLSASLGERVSLTCRASQDIGGNLYWLQQGPDGTIKRLIYATSSLDSGVPKRFSGSRSGSDYSLTISSLESEDFVDYYCLQYSSSPWTFGGGTKMEIKR
notes: Human IgG1/kappa constant regions; also called MAb to HIR
